According to PMC9456107, “DNA Motifs and an Accessory CRISPR Factor Determine Cas1 Binding and Integration Activity in Sulfolobus islandicus”:

Columns and labels:
PfuCas1 = biological target: T1, PfuCas1 (Pyrococcus furiosus COM1, UniProt I6TWX9 1-322); assay: EMSA; EMSA on 12% native PAGE, 0.3 uM FAM probe (0.5 uM P1 in Fig S3); buffer, pH and temperature not stated (refers to earlier work); conditions: protein: recombinant, tags: C-terminal His, chain copies: 2, label: 5'-FAM
T1 sequence: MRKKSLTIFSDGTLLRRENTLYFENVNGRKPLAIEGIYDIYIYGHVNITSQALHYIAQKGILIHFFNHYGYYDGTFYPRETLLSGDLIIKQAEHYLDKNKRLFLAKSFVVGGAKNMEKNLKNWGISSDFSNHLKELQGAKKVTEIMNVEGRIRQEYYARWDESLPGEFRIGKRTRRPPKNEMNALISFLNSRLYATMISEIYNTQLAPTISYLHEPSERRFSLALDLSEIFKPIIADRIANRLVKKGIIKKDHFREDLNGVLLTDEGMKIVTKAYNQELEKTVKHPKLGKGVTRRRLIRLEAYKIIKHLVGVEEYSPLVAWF

Cas2 (SisCas2) = biological target: T2, Cas2 (SisCas2) (Sulfolobus islandicus REY15A, UniProt F0NH44 1-89); assay: EMSA; 3.3 and 6.7 uM Cas2; EMSA on 12% native PAGE, 0.3 uM FAM probe (0.5 uM P1 in Fig S3); buffer, pH and temperature not stated (refers to earlier work); conditions: protein: recombinant; tags: C-terminal His; chain copies: 2; label: 5'-FAM on sense strand; mixture of blunt duplex, ssDNA and hairpin
T2 sequence: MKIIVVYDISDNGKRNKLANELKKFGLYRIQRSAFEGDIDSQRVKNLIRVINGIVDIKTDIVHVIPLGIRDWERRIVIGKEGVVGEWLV

B1: Pfu-WT leader-repeat ssDNA (structured_DNA)
DNA: CTCCGTAGGAGGATTGGGGCAAAAAAGCCCCCTGTTCCAATAAGACTACAAAAGAATTGAAAG
binding result (PfuCas1; hairpin): binds

B2: leader-proximal WT S/A annealed probe (5:1 or unspecified ratio, contains hairpin ssDNA) (mixed)
DNA 1: CAAATAGAGGGTTAAAAAACCCTCAGCTAATC
DNA 2: GATTAGCTGAGGGTTTTTTAACCCTCTATTTG
binding result (Cas2 (SisCas2)): no binding

TCCTCCACTTTCCCCGTAAGGGGTCGGAGGGGGCGGTCTTTCCC (structured_DNA) [Syn-S leader ssDNA]
binding result (PfuCas1; two predicted hairpins): binds
